Drawing on US20220363763A1 (ABL BIO, published 2022), this text covers Kd, koff and kon for 17 molecules.

To fix the notation:
T1: human LAG3 (construct not stated) (human, UniProt P18627 23-450, limits assumed)
T1 construct: also called human LAG3 protein; antigen
T1 sequence (looked up): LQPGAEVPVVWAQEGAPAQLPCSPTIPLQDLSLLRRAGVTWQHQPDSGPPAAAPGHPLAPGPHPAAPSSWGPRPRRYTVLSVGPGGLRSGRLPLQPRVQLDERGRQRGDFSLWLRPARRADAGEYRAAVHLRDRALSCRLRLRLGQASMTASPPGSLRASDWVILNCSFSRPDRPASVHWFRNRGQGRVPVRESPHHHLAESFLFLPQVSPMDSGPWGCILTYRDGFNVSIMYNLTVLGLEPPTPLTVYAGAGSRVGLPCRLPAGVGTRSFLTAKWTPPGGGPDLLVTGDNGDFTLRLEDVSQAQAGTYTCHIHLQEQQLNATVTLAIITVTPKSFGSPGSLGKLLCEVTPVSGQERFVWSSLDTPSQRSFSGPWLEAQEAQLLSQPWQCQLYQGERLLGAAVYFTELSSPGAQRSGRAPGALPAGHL

T2: recombinant his-tag human LAG3-ECD protein (human, UniProt P18627 23-450)
T2 construct: extracellular domain; not shown: his tag
T2 sequence (looked up): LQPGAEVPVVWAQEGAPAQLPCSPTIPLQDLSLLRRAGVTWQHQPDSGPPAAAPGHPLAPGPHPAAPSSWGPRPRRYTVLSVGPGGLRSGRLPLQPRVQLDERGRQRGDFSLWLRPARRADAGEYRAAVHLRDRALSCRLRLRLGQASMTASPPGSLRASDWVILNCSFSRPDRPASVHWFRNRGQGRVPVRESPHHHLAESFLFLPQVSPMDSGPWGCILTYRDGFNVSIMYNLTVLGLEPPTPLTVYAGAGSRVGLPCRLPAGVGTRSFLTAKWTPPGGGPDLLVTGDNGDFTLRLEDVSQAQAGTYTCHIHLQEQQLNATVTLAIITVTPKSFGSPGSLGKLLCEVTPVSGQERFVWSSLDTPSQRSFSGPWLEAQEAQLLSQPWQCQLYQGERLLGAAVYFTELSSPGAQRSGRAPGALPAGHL

B1: 147H-11 (antibody, V domains shown)
VH: EVQLVQSGAEVKKPGASVKVSCKASGYTFTNYWLGWVRQAPGQGLEWMGDIYPGGDYINYNEKFKGKATLTADTSISTAYMELSRLRSDDTAVYYCARPNLPGDYWGQGTTVTVSS
VL: DIVMTQSPLSLPVTPGEPASISCRSSKSLLHSNGITYLYWYLQKPGQSPQLLIYQVSNLASGVPDRFSGSGSGTDFTLKISRVEAEDVGVYYCAQNLELPWTFGGGTKVEIK
notes: Common light chain; human gamma 1 / kappa constant domains
B2: 147H-1 (antibody, V domains shown)
VH: QVQLVQSGAEVKKPGASVKVSCKASGYTFTNYWLGWVRQAPGQGLEWMGDIYPGGDYINYNEKFKGRVTMTRDTSISTAYMELSRLRSDDTAVYYCARPNLPGDYWGQGTTVTVSS
VL: DIVMTQSPLSLPVTPGEPASISCRSSKSLLHSNGITYLYWYLQKPGQSPQLLIYQVSNLASGVPDRFSGSGSGTDFTLKISRVEAEDVGVYYCAQNLELPWTFGGGTKVEIK
B3: 147H-2 (antibody, V domains shown)
VH: QVQLVQSGAEVKKPGASVKVSCKASGYTFTNYWLGWVRQAPGQGLEWMGDIYPGGDYINYNEKFKGRVTMTADTSISTAYMELSRLRSDDTAVYYCARPNLPGDYWGQGTTVTVSS
VL: DIVMTQSPLSLPVTPGEPASISCRSSKSLLHSNGITYLYWYLQKPGQSPQLLIYQVSNLASGVPDRFSGSGSGTDFTLKISRVEAEDVGVYYCAQNLELPWTFGGGTKVEIK
notes: as for B1
B4: 147H 3421 (antibody, V domains shown)
VH: EVQLVQSGAEVKKPGASVKVSCKASGYTFTNYWLGWIKQAPGQGLEWIGDIYPGGDYINYNEKFKGKATLTADTSISTAYMELSRLRSDDTAVYYCARPNLPKDHWGQGTTVTVSS
VL: DIVMTQSPLSLPVTPGEPASISCRSSKSLLHSNAITYLYWYLQKPGQSPQLLIYQVSNLASGVPDRFSGSGSGTDFTLKISRVEAEDVGVYYCAQNLELPWTFGGGTKVEIK
B5: 147H 3794 (antibody, V domains shown)
VH: EVQLVQSGAEVKKPGASVKVSCKASGYLFTNYWLGWIKQAPGQGLEWIGDIYPGGDYIVYNEKFKGKATLTADTSISTAYMELSRLRSDDTAVYYCARPNLPGDYWGQGTTVTVSS
VL: DIVMTQSPLSLPVTPGEPASISCRSSKSLLHSNAITYLYWYLQKPGQSPQLLIYQVSNLASGVPDRFSGSGSGTDFTLKISRVEAEDVGVYYCAQYLELPWTFGGGTKVEIK
B6: 147H 3549 (antibody, V domains shown)
VH: EVQLVQSGAEVKKPGASVKVSCKASGYTFTNYWLGWIKQAPGQGLEWIGDIYPGGDYINYNEKFKGKATLTADTSISTAYMELSRLRSDDTAVYYCARPNLPKDHWGQGTTVTVSS
VL: DIVMTQSPLSLPVTPGEPASISCRSSKSLLHSNAITYLYWYLQKPGQSPQLLIYQVSNLASGVPDRFSGSGSGTDFTLKISRVEAEDVGVYYCAQYLEEPWTFGGGTKVEIK
B7: 147H 3790 (antibody, V domains shown)
VH: EVQLVQSGAEVKKPGASVKVSCKASGYTFTNYWLGWIKQAPGQGLEWIGDIYPGGDYINYNEKFKGKATLTADTSISTAYMELSRLRSDDTAVYYCARPNLPKDHWGQGTTVTVSS
VL: DIVMTQSPLSLPVTPGEPASISCRSSKSLLHSNAITYLYWYLQKPGQSPQLLIYQVSNLATGVPDRFSGSGSGTDFTLKISRVEAEDVGVYYCAQNLELPWTFGGGTKVEIK
B8: 147H 3793 (antibody, V domains shown)
VH: EVQLVQSGAEVKKPGASVKVSCKASGYLFTNYWLGWIKQAPGQGLEWIGDIYPGGDYIVYNEKFKGKATLTADTSISTAYMELSRLRSDDTAVYYCARPNLPGDYWGQGTTVTVSS
VL: DIVMTQSPLSLPVTPGEPASISCRSSKSLLHSNAITYLYWYLQKPGQSPQLLIYQVSNLASGVPDRFSGSGSGTDFTLKISRVEAEDVGVYYCGQNLELPWTFGGGTKVEIK
B9: 147H 3811 (antibody, V domains shown)
VH: EVQLVQSGAEVKKPGASVKVSCKASGYLFTNYWLGWIKQAPGQGLEWIGDIYPGGDYIVYNEKFKGKATLTADTSISTAYMELSRLRSDDTAVYYCARPNLPKDHWGQGTTVTVSS
VL: DIVMTQSPLSLPVTPGEPASISCRSSKSLLHSNAITYLYWYLQKPGQSPQLLIYQVSNLATGVPDRFSGSGSGTDFTLKISRVEAEDVGVYYCGQYLELPWTFGGGTKVEIK
B10: 147H 3669 (antibody, V domains shown)
VH: EVQLVQSGAEVKKPGASVKVSCKASGYLFTNYWLGWIKQAPGQGLEWIGDIYPGGDYIVYNEKFKGKATLTADTSISTAYMELSRLRSDDTAVYYCARPNLPGDYWGQGTTVTVSS
VL: DIVMTQSPLSLPVTPGEPASISCRSSKSLLHSNAITYLYWYLQKPGQSPQLLIYQVSNLASGVPDRFSGSGSGTDFTLKISRVEAEDVGVYYCAQNLELPWTFGGGTKVEIK
B11: 147H 3550 (antibody, V domains shown)
VH: EVQLVQSGAEVKKPGASVKVSCKASGYTFTNYWLGWIKQAPGQGLEWIGDIYPGGDYINYNEKFKGKATLTADTSISTAYMELSRLRSDDTAVYYCARPNLPKDHWGQGTTVTVSS
VL: DIVMTQSPLSLPVTPGEPASISCRSSKSLLHSNAITYLYWYLQKPGQSPQLLIYQVSNLASGVPDRFSGSGSGTDFTLKISRVEAEDVGVYYCAQYLELPWTFGGGTKVEIK
B12: 147H 3809 (antibody, V domains shown)
VH: EVQLVQSGAEVKKPGASVKVSCKASGYLFTNYWLGWIKQAPGQGLEWIGDIYPGGDYIVYNEKFKGKATLTADTSISTAYMELSRLRSDDTAVYYCARPNLPKDHWGQGTTVTVSS
VL: DIVMTQSPLSLPVTPGEPASISCRSSKSLLHSNAITYLYWYLQKPGQSPQLLIYQVSNLASGVPDRFSGSGSGTDFTLKISRVEAEDVGVYYCAQYLELPWTFGGGTKVEIK
B13: 147H 3663 (antibody, V domains shown)
VH: EVQLVQSGAEVKKPGASVKVSCKASGYTFENYWLGWIKQAPGQGLEWIGDIYPGGDYIVYNEKFKGKATLTADTSISTAYMELSRLRSDDTAVYYCARPNLPGDYWGQGTTVTVSS
VL: DIVMTQSPLSLPVTPGEPASISCRSSKSLLHSNAITYLYWYLQKPGQSPQLLIYQVSNLARGVPDRFSGSGSGTDFTLKISRVEAEDVGVYYCAQNLELPWTFGGGTKVEIK
B14: 147H 3792 (antibody, V domains shown)
VH: EVQLVQSGAEVKKPGASVKVSCKASGYTFTNYWLGWIKQAPGQGLEWIGDIYPGGDYIVYNEKFKGKATLTADTSISTAYMELSRLRSDDTAVYYCARPNLPGDYWGQGTTVTVSS
VL: DIVMTQSPLSLPVTPGEPASISCRSSKSLLHSNAITYLYWYLQKPGQSPQLLIYQVSNLASGVPDRFSGSGSGTDFTLKISRVEAEDVGVYYCAQYLELPWTFGGGTKVEIK
B15: 147H 3808 (antibody, V domains shown)
VH: EVQLVQSGAEVKKPGASVKVSCKASGYTFTNYWLGWIKQAPGQGLEWIGDIYPGGDYIVYNEKFKGKATLTADTSISTAYMELSRLRSDDTAVYYCARPNLPKDHWGQGTTVTVSS
VL: DIVMTQSPLSLPVTPGEPASISCRSSKSLLHSNAITYLYWYLQKPGQSPQLLIYQVSNLASGVPDRFSGSGSGTDFTLKISRVEAEDVGVYYCGQYLELPWTFGGGTKVEIK
B16: 147H 3791 (antibody, V domains shown)
VH: EVQLVQSGAEVKKPGASVKVSCKASGYTFTNYWLGWIKQAPGQGLEWIGDIYPGGDYIVYNEKFKGKATLTADTSISTAYMELSRLRSDDTAVYYCARPNLPGDYWGQGTTVTVSS
VL: DIVMTQSPLSLPVTPGEPASISCRSSKSLLHSNAITYLYWYLQKPGQSPQLLIYQVSNLASGVPDRFSGSGSGTDFTLKISRVEAEDVGVYYCGQNLELPWTFGGGTKVEIK
B17: 147H 3508 (antibody, V domains shown)
VH: EVQLVQSGAEVKKPGASVKVSCKASGYTFTNYWLGWIKQAPGQGLEWIGDIYPGGDYINYNEKFKGKATLTADTSISTAYMELSRLRSDDTAVYYCARPNLPKDHWGQGTTVTVSS
VL: DIVMTQSPLSLPVTPGEPASISCRSSKSLLHSNAITYLYWYLQKPGQSPQLLIYQVSNLASGVPDRFSGSGSGTDFTLKISRVEAEDVGVYYCGQNLELPWTFGGGTKVEIK

For the first experiment, the target named is T1, human LAG3 (construct not stated). Briefly: BLI Octet Red 96, affinity ranking. On the technique in general: BLI is a label-free optical method that tracks binding on a fibre tip over time.
Regarding B1, the affinity, expressed as Kd, was 42.2 nM; the koff (as a rule, the rate constant with which the complex falls apart) amounted to 0.00451 s⁻¹; the association rate constant (kon) (in general, the rate constant with which the complex forms) came to 107000 M⁻¹ s⁻¹.

Take B2: the Kd (in general, a measure of binding affinity in units of concentration) was 35.4 nM; the koff amounted to 0.00386 s⁻¹; the kon was found to be 109000 M⁻¹ s⁻¹.

In the case of B3, the dissociation constant Kd was 31.6 nM, the off-rate (koff) stood at 0.00314 s⁻¹ and the kon worked out at 99300 M⁻¹ s⁻¹.

A further experiment deals with T2, recombinant his-tag human LAG3-ECD …. As to the kind of experiment: SPR Biacore T200, capture method as Example 2.7.
As to B4, the Kd was found to be 8.1 nM, the koff came out at 0.012 s⁻¹ and the kon worked out at 1.4e+06 M⁻¹ s⁻¹.

For B5, the Kd was determined as 0.72 nM, the koff stood at 0.0027 s⁻¹ and the on-rate (kon) stood at 3.7e+06 M⁻¹ s⁻¹.

As for B6, the Kd was 0.92 nM, the koff worked out at 0.0068 s⁻¹ and the kon stood at 7.4e+06 M⁻¹ s⁻¹.

In the case of B7, the Kd came to 5.9 nM, the koff is 0.0045 s⁻¹ and the kon came out at 770000 M⁻¹ s⁻¹.

On to B8, for which the Kd came to 1.3 nM, the koff worked out at 0.0023 s⁻¹ and the on-rate (kon) worked out at 1.8e+06 M⁻¹ s⁻¹.

Turning to B9, the Kd was 0.59 nM, the koff was 0.0029 s⁻¹ and the kon was 4.9e+06 M⁻¹ s⁻¹.

In the case of B10, the Kd was 8.8 nM, the koff came out at 0.0063 s⁻¹ and the kon amounted to 720000 M⁻¹ s⁻¹.

As to B11, the Kd was determined as 0.98 nM, the koff is 0.0085 s⁻¹ and the on-rate constant (kon) came to 8.7e+06 M⁻¹ s⁻¹.

Regarding B12, the Kd came to 0.47 nM, the koff is 0.002 s⁻¹ and the kon turned out to be 4.3e+06 M⁻¹ s⁻¹.

As to B13, the equilibrium dissociation constant (Kd) came out at 6.8 nM, the koff worked out at 0.0054 s⁻¹ and the kon is 790000 M⁻¹ s⁻¹.

For B14, the Kd was 0.59 nM, the koff was determined as 0.0029 s⁻¹ and the kon turned out to be 4.9e+06 M⁻¹ s⁻¹.

Take B15: the Kd is 0.75 nM, the off-rate (koff) came out at 0.0032 s⁻¹ and the kon came out at 4.3e+06 M⁻¹ s⁻¹.

Take B16: the Kd turned out to be 1.2 nM, the off-rate constant (koff) came out at 0.0025 s⁻¹ and the kon is 2.1e+06 M⁻¹ s⁻¹.

Take B17: the Kd was found to be 1.4 nM, the koff was found to be 0.0042 s⁻¹ and the kon came out at 2.9e+06 M⁻¹ s⁻¹.
